Measurements taken from article PMC8609364, “A Selective Tether Recruits Activated Response Regulator CheB to Its Chemoreceptor Substrate” (mBio, 2021).

Experiments:
[1] = molecular target: TarQEQE; conditions: pulldown assay, pentapeptide at carboxyl terminus of TarQEQE in native membrane, unphosphorylated CheB; ref [21]; read-out: equilibrium dissociation constant [KD]; cited from earlier work
[2] = molecular target: Tar4Q L378C, E. coli aspartate chemoreceptor Tar, all-glutaminyl form with carboxyl-terminal pentapeptide, homodimer in Nanodiscs (E. coli) (UniProt P07017); experiment: BLI; BLItz; biotinylated Tar homodimers in Nanodiscs held on an avidin sensor tip, CheB or CheBC in solution; 50 mM Tris-HCl pH 7.5, 10% glycerol, 5 mM MgCl2, 50 mM KCl, 2% BSA, 2 mM DTT; global fit, apparent rate constants, KD calculated from kon and koff
[3] = molecular target: Tar4EΔpp-6H L378C, E. coli Tar lacking the carboxyl-terminal pentapeptide, all-glutamyl form, homodimer in … (E. coli, UniProt P07017 1-553, L378C, biotinylated at L378C); experiment: as above; conditions: both partners purified
[4] = molecular target: Tar4QΔpp-6H L378C, E. coli Tar lacking the carboxyl-terminal pentapeptide, all-glutaminyl form, homodimer in … (E. coli, UniProt P07017 1-553, L378C, biotinylated at L378C); experiment: as above; conditions: both partners purified

B1: methylesterase/deamidase CheB from E. coli, low-activity, unphosphorylated form (enzyme, UniProt P07330 1-349, looked up)
chain: MSKIRVLSVDDSALMRQIMTEIINSHSDMEMVATAPDPLVARDLIKKFNPDVLTLDVEMPRMDGLDFLEKLMRLRPMPVVMVSSLTGKGSEVTLRALELGAIDFVTKPQLGIREGMLAYNEMIAEKVRTAAKASLAAHKPLSAPTTLKAGPLLSSEKLIAIGASTGGTEAIRHVLQPLPLSSPALLITQHMPPGFTRSFADRLNKLCQIGVKEAEDGERVLPGHAYIAPGDRHMELSRSGANYQIKIHDGPAVNRHRPSVDVLFHSVAKQAGRNAVGVILTGMGNDGAAGMLAMRQAGAWTLAQNEASCVVFGMPREAINMGGVCEVVDLSQVSQQMLAKISAGQAIRI
notes: CheB methylesterase/deamidase of E. coli, unphosphorylated, from plasmid pCW/cheB; measured with 2 mM DTT in the buffer; also called low-activity CheB; unmodified CheB; source: E. coli K-12 RP3098 with pCW/cheB, purified
Kd [1]: ~150 µM | Kd [2]: 160 µM | Kd [3]: 850 µM | Kd [4]: 590 µM
